Experimental data taken from patent US20090042248.

T1: Human C2, P06681
T1 chain: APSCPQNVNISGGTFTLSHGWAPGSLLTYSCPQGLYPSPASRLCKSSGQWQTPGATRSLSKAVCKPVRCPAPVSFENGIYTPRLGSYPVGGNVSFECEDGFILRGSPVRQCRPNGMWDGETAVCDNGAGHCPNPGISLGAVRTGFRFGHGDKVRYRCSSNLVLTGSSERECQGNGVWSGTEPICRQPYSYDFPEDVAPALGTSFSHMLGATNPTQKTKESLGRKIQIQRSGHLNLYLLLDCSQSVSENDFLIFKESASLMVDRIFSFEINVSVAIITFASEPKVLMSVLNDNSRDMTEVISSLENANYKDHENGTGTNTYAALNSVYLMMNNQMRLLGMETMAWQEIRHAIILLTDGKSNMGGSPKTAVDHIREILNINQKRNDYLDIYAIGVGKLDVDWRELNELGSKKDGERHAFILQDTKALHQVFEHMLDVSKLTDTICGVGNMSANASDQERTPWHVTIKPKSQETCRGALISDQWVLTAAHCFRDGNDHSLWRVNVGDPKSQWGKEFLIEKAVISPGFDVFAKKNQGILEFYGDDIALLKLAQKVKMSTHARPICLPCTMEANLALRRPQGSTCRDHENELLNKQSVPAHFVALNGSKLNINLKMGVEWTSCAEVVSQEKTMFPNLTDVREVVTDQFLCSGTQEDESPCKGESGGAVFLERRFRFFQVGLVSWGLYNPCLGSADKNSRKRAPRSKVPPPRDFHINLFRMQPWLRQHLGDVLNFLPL

T2: alpha-2-macroglobulin, P01023
T2 chain: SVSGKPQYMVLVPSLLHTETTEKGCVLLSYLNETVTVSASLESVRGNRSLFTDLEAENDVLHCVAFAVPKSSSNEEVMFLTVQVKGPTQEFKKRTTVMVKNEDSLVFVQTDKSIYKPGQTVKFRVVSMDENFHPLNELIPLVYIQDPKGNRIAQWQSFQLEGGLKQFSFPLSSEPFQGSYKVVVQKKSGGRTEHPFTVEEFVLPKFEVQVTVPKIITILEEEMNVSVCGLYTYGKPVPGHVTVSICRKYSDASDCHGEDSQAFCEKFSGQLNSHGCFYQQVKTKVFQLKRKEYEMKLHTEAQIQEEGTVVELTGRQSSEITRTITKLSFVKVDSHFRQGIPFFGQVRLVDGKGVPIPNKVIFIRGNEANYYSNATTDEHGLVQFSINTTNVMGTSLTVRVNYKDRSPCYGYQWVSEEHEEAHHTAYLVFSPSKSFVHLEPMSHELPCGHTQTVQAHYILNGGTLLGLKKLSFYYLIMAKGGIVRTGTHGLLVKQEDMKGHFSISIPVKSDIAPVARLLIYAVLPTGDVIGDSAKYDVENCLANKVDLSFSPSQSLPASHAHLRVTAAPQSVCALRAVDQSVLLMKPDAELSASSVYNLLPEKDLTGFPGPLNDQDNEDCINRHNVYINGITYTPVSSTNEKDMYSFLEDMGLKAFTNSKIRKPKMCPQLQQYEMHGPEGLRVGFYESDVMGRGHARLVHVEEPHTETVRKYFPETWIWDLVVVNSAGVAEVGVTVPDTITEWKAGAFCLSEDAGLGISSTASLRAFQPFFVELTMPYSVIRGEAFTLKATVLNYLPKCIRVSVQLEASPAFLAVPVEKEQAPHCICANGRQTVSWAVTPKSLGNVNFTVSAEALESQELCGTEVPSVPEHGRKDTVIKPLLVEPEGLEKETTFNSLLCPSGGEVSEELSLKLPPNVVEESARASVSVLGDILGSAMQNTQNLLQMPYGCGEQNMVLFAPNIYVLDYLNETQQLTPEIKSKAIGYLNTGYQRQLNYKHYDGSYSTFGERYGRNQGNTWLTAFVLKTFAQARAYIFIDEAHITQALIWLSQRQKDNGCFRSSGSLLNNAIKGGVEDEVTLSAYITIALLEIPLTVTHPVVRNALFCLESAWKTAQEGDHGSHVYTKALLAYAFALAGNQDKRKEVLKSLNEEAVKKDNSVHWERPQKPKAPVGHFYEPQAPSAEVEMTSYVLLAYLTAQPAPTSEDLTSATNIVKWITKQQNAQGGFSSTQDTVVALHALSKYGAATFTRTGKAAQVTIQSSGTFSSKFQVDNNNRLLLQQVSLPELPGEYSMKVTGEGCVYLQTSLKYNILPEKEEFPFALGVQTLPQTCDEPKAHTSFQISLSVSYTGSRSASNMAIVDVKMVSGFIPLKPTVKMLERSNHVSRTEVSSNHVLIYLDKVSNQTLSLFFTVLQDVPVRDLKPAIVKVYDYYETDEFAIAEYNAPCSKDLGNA

T3: C1r CCP1-CCP2-SP S654A, P00736
T3 chain: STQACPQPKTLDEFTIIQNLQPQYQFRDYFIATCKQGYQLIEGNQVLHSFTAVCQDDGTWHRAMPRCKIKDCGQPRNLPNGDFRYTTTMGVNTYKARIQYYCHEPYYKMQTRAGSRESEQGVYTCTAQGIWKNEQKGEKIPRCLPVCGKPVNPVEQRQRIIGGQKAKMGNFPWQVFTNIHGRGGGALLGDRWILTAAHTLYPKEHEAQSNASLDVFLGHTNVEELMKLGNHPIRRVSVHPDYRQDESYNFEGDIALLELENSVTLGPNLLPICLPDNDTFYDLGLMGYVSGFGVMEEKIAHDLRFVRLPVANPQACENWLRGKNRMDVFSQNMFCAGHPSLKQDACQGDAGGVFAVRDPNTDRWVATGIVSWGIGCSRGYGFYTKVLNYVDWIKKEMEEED

T4: C1r CCP2-SP S654A, P00736
T4 chain: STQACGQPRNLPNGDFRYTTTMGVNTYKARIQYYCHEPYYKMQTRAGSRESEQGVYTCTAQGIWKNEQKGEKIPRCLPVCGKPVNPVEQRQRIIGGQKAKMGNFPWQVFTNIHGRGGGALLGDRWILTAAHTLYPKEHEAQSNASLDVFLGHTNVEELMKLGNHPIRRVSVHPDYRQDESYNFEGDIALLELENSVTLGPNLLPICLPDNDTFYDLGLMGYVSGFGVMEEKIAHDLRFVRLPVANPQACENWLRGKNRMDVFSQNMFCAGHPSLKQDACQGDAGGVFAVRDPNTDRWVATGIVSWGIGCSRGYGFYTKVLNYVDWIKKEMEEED

T5: C1r SP S654A, P00736
T5 chain: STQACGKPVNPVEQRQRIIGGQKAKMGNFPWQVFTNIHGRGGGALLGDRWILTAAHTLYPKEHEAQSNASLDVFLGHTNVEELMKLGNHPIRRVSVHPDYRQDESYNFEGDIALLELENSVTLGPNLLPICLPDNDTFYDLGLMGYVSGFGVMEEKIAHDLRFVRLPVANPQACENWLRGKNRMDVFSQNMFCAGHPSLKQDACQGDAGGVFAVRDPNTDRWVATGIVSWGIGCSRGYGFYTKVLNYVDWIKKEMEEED

T6: Proenzyme C1s, P09871
T6 chain: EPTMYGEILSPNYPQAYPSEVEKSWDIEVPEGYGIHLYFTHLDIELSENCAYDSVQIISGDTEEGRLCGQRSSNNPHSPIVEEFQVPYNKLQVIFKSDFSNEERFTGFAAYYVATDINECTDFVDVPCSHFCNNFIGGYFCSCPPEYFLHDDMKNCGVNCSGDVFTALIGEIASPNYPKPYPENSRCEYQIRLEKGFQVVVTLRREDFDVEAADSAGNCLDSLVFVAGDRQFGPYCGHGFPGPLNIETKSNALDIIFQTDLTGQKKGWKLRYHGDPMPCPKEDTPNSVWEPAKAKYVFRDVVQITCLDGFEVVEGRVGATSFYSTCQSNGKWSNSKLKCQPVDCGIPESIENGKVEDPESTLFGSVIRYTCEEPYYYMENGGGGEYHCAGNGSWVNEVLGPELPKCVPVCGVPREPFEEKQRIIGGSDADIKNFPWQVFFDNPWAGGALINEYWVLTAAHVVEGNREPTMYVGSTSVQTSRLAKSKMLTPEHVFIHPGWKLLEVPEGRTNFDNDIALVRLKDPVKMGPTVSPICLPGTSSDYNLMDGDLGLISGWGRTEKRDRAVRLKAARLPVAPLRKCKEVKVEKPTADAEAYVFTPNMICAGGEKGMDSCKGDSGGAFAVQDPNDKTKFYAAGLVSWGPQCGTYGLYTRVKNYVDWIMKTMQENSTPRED

B1: MASP-2 CCP2-SP fragment (protein)
chain 1: ASMTIVDCGPPDDLPSGRVEYITGPGVTTYKAVIQYSCEETFYTMKVNDGKYVCEADGFWTSSKGEKSLPVCEPVCGLSARTTGGR
chain 2: IYGGQKAKPGDFPWQVLILGGTTAAGALLYDNWVLTAAHAVYEQKHDASALDIRMGTLKRLSPHYTQAWSEAVFIHEGYTHDAGFDNDIALIKLNNKVVINSNITPICLPRKEAESFMRTDDIGTASGWGLTQRGFLARNLMYVDIPIVDHQKCTAAYEKPPYPRGSVTANMLCAGLESGGKDSCRGDSGGALVFLDSETERWFVGGIVSWGSMNCGEAGQYGVYTKVINYIPWIENIISDF
B2: MASP-2 SP fragment (protein)
chain 1: ASMTPVCGLSARTTGGR
chain 2: B1 chain 2
B3: C1r CCP1-CCP2-SP fragment (wild-type) (protein)
chain 1: STQACPQPKTLDEFTIIQNLQPQYQFRDYFIATCKQGYQLIEGNQVLHSFTAVCQDDGTWHRAMPRCKIKDCGQPRNLPNGDFRYTTTMGVNTYKARIQYYCHEPYYKMQTRAGSRESEQGVYTCTAQGIWKNEQKGEKIPRCLPVCGKPVNPVEQRQR
chain 2: IIGGQKAKMGNFPWQVFTNIHGRGGGALLGDRWILTAAHTLYPKEHEAQSNASLDVFLGHTNVEELMKLGNHPIRRVSVHPDYRQDESYNFEGDIALLELENSVTLGPNLLPICLPDNDTFYDLGLMGYVSGFGVMEEKIAHDLRFVRLPVANPQACENWLRGKNRMDVFSQNMFCAGHPSLKQDACQGDSGGVFAVRDPNTDRWVATGIVSWGIGCSRGYGFYTKVLNYVDWIKKEMEEED
B4: C1r CCP2-SP fragment (wild-type) (protein)
chain 1: STQACGQPRNLPNGDFRYTTTMGVNTYKARIQYYCHEPYYKMQTRAGSRESEQGVYTCTAQGIWKNEQKGEKIPRCLPVCGKPVNPVEQRQR
chain 2: B3 chain 2
B5: C1r SP fragment (wild-type) (protein)
chain 1: STQACGKPVNPVEQRQR
chain 2: B3 chain 2

What was measured:
[1] = target: T1, Human C2, P06681
[2] = target: Human C4, P0C0L4
[3] = target: T2, alpha-2-macroglobulin, P01023
[4] = target: 'dead' C3(NH3), P01024
[5] = target: 'live' C3 (C3 with an intact thiol ester bond), P01024
[6] = target: T3, C1r CCP1-CCP2-SP S654A, P00736
[7] = target: T4, C1r CCP2-SP S654A, P00736
[8] = target: T5, C1r SP S654A, P00736
[9] = target: T6, Proenzyme C1s, P09871

Human C4, P0C0L4, sequence (P0C0L4 whole entry, looked up): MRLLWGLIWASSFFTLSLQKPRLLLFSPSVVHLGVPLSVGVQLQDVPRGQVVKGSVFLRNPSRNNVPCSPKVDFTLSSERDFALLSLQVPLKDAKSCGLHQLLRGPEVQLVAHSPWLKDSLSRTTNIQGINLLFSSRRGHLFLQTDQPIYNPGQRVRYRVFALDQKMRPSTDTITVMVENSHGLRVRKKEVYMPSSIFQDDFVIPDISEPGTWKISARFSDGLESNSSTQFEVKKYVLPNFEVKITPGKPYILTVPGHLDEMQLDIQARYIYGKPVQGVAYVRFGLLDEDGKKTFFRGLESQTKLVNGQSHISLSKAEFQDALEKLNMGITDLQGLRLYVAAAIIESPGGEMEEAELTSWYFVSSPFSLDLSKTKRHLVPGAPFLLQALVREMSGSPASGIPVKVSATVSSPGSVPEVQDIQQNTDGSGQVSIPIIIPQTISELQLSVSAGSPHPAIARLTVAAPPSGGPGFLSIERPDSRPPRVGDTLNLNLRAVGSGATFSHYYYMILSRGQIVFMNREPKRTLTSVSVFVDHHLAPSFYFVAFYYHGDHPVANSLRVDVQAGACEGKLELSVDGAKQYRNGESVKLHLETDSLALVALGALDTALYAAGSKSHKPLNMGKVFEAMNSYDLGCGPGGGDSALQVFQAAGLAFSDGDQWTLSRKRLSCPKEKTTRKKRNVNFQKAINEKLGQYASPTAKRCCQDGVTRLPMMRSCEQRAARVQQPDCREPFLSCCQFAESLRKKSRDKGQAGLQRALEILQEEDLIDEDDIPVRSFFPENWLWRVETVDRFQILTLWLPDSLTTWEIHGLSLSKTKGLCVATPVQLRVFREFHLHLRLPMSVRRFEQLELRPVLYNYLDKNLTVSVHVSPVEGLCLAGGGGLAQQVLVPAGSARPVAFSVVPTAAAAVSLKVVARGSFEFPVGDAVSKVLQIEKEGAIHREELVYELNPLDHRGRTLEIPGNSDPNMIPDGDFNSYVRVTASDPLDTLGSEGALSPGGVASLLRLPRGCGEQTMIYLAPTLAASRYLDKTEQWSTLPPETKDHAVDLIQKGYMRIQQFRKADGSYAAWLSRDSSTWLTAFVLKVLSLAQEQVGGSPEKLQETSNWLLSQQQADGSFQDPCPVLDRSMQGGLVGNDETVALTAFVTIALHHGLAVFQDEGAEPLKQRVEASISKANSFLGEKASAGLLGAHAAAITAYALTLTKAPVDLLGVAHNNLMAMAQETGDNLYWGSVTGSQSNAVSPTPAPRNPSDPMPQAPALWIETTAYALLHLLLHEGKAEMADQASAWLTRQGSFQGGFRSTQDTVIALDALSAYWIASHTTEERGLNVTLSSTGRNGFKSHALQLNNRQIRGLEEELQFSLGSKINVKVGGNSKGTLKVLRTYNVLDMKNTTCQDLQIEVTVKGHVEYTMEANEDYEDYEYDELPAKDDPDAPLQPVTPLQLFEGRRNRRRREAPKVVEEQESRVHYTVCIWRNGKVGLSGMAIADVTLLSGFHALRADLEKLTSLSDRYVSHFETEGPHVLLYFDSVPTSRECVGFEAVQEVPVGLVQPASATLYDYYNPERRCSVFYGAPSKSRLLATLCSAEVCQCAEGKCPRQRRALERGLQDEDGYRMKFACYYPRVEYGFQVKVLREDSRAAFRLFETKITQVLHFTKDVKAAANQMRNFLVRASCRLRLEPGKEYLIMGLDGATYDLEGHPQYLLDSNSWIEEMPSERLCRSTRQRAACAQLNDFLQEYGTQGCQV
'live' C3 (C3 with an intact thiol ester bond), P01024, sequence (P01024 whole entry, looked up): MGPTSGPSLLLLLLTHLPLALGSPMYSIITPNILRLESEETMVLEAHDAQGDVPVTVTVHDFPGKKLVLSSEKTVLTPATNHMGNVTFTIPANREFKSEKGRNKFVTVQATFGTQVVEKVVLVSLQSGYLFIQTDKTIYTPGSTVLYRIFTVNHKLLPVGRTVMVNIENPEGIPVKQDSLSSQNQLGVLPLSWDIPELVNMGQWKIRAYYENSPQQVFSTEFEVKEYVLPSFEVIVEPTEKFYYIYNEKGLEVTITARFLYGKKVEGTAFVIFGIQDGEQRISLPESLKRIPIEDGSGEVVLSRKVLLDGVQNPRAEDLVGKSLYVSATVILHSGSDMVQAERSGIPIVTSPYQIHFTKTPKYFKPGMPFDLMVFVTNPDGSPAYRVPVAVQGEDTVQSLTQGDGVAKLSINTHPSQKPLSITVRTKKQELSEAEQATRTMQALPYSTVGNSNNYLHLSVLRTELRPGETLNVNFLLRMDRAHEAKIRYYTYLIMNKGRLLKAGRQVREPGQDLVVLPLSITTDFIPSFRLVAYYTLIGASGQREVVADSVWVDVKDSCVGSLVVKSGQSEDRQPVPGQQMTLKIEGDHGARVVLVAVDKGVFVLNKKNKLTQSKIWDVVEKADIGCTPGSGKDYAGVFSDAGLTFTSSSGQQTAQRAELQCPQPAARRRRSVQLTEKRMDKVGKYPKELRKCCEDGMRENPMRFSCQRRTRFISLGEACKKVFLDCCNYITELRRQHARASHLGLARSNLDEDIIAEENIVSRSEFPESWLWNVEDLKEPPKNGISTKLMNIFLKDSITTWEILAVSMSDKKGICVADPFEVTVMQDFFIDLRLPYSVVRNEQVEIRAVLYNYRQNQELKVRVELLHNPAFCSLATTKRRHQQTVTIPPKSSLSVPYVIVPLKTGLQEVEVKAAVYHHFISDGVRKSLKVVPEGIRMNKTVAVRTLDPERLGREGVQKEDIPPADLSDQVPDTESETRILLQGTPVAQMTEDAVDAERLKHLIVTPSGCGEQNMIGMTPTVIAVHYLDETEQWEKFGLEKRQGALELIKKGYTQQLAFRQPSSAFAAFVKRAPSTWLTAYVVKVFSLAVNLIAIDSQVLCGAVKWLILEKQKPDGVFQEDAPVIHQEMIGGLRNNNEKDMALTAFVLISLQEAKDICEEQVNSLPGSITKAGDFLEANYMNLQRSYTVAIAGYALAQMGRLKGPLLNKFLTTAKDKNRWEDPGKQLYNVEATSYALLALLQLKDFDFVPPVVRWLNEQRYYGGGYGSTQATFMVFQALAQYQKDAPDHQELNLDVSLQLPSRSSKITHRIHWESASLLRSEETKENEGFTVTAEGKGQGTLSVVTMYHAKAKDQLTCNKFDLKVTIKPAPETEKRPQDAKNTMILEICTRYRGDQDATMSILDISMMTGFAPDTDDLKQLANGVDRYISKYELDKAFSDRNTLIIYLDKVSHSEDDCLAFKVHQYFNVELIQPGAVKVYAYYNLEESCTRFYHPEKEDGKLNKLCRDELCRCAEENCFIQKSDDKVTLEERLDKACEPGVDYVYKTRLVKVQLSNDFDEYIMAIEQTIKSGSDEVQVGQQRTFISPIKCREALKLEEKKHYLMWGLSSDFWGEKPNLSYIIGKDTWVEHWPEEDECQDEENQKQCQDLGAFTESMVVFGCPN
'dead' C3(NH3), P01024, sequence (P01024 whole entry, looked up): as above

Protein	KM, C2 cleavage [1] [µM]	kcat, C2 cleavage [1] [s⁻¹]	kcat/KM, C2 cleavage [1] [M⁻¹ s⁻¹]	KM, C4 cleavage [2] [µM]	fold increase in the kcat/KM value of C4 cleavage against the SP domain alone [2]	kcat, C4 cleavage [2] [s⁻¹]	kcat/KM, C4 cleavage [2] [M⁻¹ s⁻¹]	molar excess needed to abolish cleavage of complement substrates [3]	cleavage of 'dead' C3 (control) [4]	cleavage of 'live' C3 (control) [5]	kcat/KM, cleavage of S654A zymogen [6] [s^-1M^-1]	kcat/KM, cleavage of S654A zymogen [7] [s^-1M^-1]	kcat/KM, cleavage of S654A zymogen [8] [s^-1M^-1]	kcat/KM, C1s cleavage [9] [s^-1M^-1]
B1	2.7	3	1.3e+06	0.4	a 44-fold increase in the kcat/KM value	2	5.7e+06	or with a large molar excess (40 fold) of alpha-2-macroglobulin	–	–	–	–	–	–
B2	3.2	3.9	2.5e+06	2	–	0.2	130000	or with a large molar excess (40 fold) of alpha-2-macroglobulin	–	–	–	–	–	–
B3	–	–	–	–	–	–	–	–	we observed no cleavages of either 'live' or 'dead' C3	we observed no cleavages of either 'live' or 'dead' C3	6200	15900	45000	58000
B4	–	–	–	–	–	–	–	–	–	–	74000	130000	68000	208000
B5	–	–	–	–	–	–	–	–	–	–	72000	75000	71000	28000
